{"source": "paper PMC12412097", "about": "“Structure and Nitrite Reductase Activity of the Di-iron Protein ScdA in Staphylococcus aureus” (Journal of the American Chemical Society, 2025)", "key": {"[1]": {"biological_target": "C-terminal domain-only (CTD, residues 64-224) variant of ScdA (S. aureus) (UniProt P72360)", "assay": "SEC; Superdex 75 Increase 10/300 GL, 20 mM Tris, 150 mM NaCl, pH 7.6; no reducing agent (WT also with MV radicals); oligomer peak at 9.2 mL, dimer peak at 10.9 mL"}, "[2]": {"system": "O=NO", "assay": "purified protein", "settings": "pH 7.6, methyl viologen cation radical as electron donor, 1 μM enzyme"}}}
{"substance": "C-terminal domain-only (CTD, residues 64-224) variant of ScdA (from UniProt P72360 64-224) (domain or fragment)", "values": [{"measurement": "stoichiometry N", "setting": "[1]", "value": 2}]}
{"substance": "ScdA (Staphylococcus aureus subsp. aureus NCTC 8325)", "values": [{"measurement": "Km", "setting": "[2]; partly oligomeric", "value": 681, "unit": "µM"}, {"measurement": "kcat", "setting": "[2]; partly oligomeric", "value": 32.3, "unit": "min^–1"}]}
{"substance": "ScdA (Staphylococcus aureus subsp. aureus NCTC 8325; C191A/C30A/C31A)", "values": [{"measurement": "Km", "setting": "[2]; predominantly dimeric", "value": 822, "unit": "µM"}, {"measurement": "kcat", "setting": "[2]; predominantly dimeric", "value": 94.3, "unit": "min^–1"}]}
